Measurements: US20250109203A1
Numbering of substitutions follows the chain as printed.

B1: 1D7 VHH-hIgG1 Fc-NNT (monomeric, parental) (VHH)
VHH: QVQLVQSGGGLVQPGGSLRLSCVASRGKISQYRMGWYRQAPGKQRELVAHISNTGDAAEYVDSVKGRFTISRDSTKNAVYLQMNSLKPEDTAVYKCNSVEDILAWGQGTQVTVKP
B2: hu1D7v11 VHH-hIgG1 Fc-NNT (monomeric) (VHH)
VHH: EVQLLESGGGEVQPGGSLRLSCVASRGKISQYRMGWYRQAPGKGLEWVAAISNTGDAAEYVDSVKGRFTISRDSTKNAVYLQMSSLRAEDTAVYKCNSVEDILAWGQGTLVTVKP
B3: hu1D7v13 VHH-hIgG1 Fc-NNT (monomeric) (VHH)
VHH: B2 VHH with A50H, T54S
B4: hu1D7v14 VHH-hIgG1 Fc-NNT (monomeric) (VHH)
VHH: B2 VHH with A50H, D56G
B5: hu1D7v15 VHH-hIgG1 Fc-NNT (monomeric) (VHH)
VHH: B2 VHH with A50H, A57S
B6: hu1D7v16 VHH-hIgG1 Fc-NNT (monomeric) (VHH)
VHH: B2 VHH with A50H, A58T
B7: hu1D7v17 VHH-hIgG1 Fc-NNT (monomeric) (VHH)
VHH: B2 VHH with A50H, E59Y
B8: hu1D7v18 VHH-hIgG1 Fc-NNT (monomeric) (VHH)
VHH: B2 VHH with A50H, V61A, D62E
B9: hu1D7v19 VHH-hIgG1 Fc-NNT (monomeric) (VHH)
VHH: B2 VHH with A50H, G66D
B10: hu1D7v22 VHH-hIgG1 Fc-NNT (monomeric) (VHH)
VHH: B2 VHH with A50H, A78T
B11: hu1D7v23 VHH-hIgG1 Fc-NNT (monomeric) (VHH)
VHH: B2 VHH with A50H, V79L
B12: hu1D7v1 VHH-hIgG1 Fc-NNT (monomeric) (VHH)
VHH: B2 VHH with A50H
B13: hu1D7v24 VHH-hIgG1 Fc-NNT (monomeric) (VHH)
VHH: B2 VHH with A50H, S98A
B14: hu1D7v25 VHH-hIgG1 Fc-NNT (monomeric) (VHH)
VHH: B2 VHH with A50H, N97A
B15: hu1D7v26 VHH-hIgG1 Fc-NNT (monomeric) (VHH)
VHH: B2 VHH with A50H, K95Y
B16: hu1D7v28 VHH-hIgG1 Fc-NNT (monomeric) (VHH)
VHH: B2 VHH with V23A, G44E, A50H
B17: hu1D7v29 VHH-hIgG1 Fc-NNT (monomeric) (VHH)
VHH: B2 VHH with Q31S, G44E, A50H
B18: hu1D7v30 VHH-hIgG1 Fc-NNT (monomeric) (VHH)
VHH: B2 VHH with G44E, A50H, E59Y
B19: hu1D7v31 VHH-hIgG1 Fc-NNT (monomeric) (VHH)
VHH: B2 VHH with G44E, A50H, D62A, S63P
B20: hu1D7v32 VHH-hIgG1 Fc-NNT (monomeric) (VHH)
VHH: B2 VHH with G44E, A50H, D62E
B21: hu1D7v33 VHH-hIgG1 Fc-NNT (monomeric) (VHH)
VHH: B2 VHH with G44E, A50H, G66D
B22: hu1D7v34 VHH-hIgG1 Fc-NNT (monomeric) (VHH)
VHH: B2 VHH with G44E, A50H, S74N, T75A
B23: hu1D7v35 VHH-hIgG1 Fc-NNT (monomeric) (VHH)
VHH: B2 VHH with G44E, A50H, V79L
B24: hu1D7v36 VHH-hIgG1 Fc-NNT (monomeric) (VHH)
VHH: B2 VHH with G44E, A50H, K95Y
B25: hu1D7v37 VHH-hIgG1 Fc-NNT (monomeric) (VHH)
VHH: B2 VHH with G44E, A50H, S98T
B26: hu1D7v38 VHH-hIgG1 Fc-NNT (monomeric) (VHH)
VHH: B2 VHH with G44E, A50H, S98V
B27: hu1D7v39 VHH-hIgG1 Fc-NNT (monomeric) (VHH)
VHH: B2 VHH with G44E, A50H, K114R
B28: hu1D7v57 VHH-hIgG1 Fc-NNT (monomeric) (VHH)
VHH: B2 VHH with G44E, L45R, W47L, A50H, V79L, K114R
B29: hu1D7v58 VHH-hIgG1 Fc-NNT (monomeric) (VHH)
VHH: B2 VHH with G44E, L45R, W47L, A50H, G66D, V79L, K114R
B30: hu1D7v59 VHH-hIgG1 Fc-NNT (monomeric) (VHH)
VHH: B2 VHH with G44E, L45R, W47L, A50H, D62A, S63P, G66D, V79L, K114R
B31: hu1D7v60 VHH-hIgG1 Fc-NNT (monomeric) (VHH)
VHH: B2 VHH with G44E, L45R, W47L, A50H, G66D, S74N, T75A, V79L, K114R
B32: hu1D7v4 VHH-hIgG1 Fc-NNT (monomeric) (VHH)
VHH: B2 VHH with G27F, A50H
B33: hu1D7v61 VHH-hIgG1 Fc-NNT (monomeric) (VHH)
VHH: B2 VHH with G44E, L45R, W47L, A50H, G66D, V79L, S98T, K114R
B34: hu1D7v63 VHH-hIgG1 Fc-NNT (monomeric) (VHH)
VHH: EVQLLESGGGEVQPGGSLRLSCAASRGKISQYRMGWYRQAPGKERELVAHISNTGDAAEYVAPVKDRFTISRDNAKNALYLQMSSLRAEDTAVYKCNTVEDILAWGQGTLVTVRP
B35: hu1D7v65 VHH-hIgG1 Fc-NNT (monomeric) (VHH)
VHH: B34 VHH with A23V, A62D, P63A, N74S, A75T, T98S
B36: hu1D7v66 VHH-hIgG1 Fc-NNT (monomeric) (VHH)
VHH: B34 VHH with A23V, A62D, P63T, N74S, A75T, T98S
B37: hu1D7v67 VHH-hIgG1 Fc-NNT (monomeric) (VHH)
VHH: B34 VHH with A23V, A62D, P63S, N74S, A75T, N97Q, T98S
B38: hu1D7v69 VHH-hIgG1 Fc-NNT (monomeric) (VHH)
VHH: B34 VHH with A23V, A62D, P63S, N74S, A75T, N97T, T98S
B39: hu1D7v70 VHH-hIgG1 Fc-NNT (monomeric) (VHH)
VHH: B34 VHH with A23V, A62D, P63S, N74S, A75T, N97E, T98S
B40: hu1D7v71 VHH-hIgG1 Fc-NNT (monomeric) (VHH)
VHH: B34 VHH with A23V, A62D, P63V, N74S, A75T, T98S
B41: hu1D7v72 VHH-hIgG1 Fc-NNT (monomeric) (VHH)
VHH: B34 VHH with A23V, A62D, P63L, N74S, A75T, T98S
B42: hu1D7v73 VHH-hIgG1 Fc-NNT (monomeric) (VHH)
VHH: B34 VHH with A23V, A62D, P63I, N74S, A75T, T98S
B43: hu1D7v74 VHH-hIgG1 Fc-NNT (monomeric) (VHH)
VHH: B34 VHH with A23V, P63S, N74S, A75T, T98S
B44: hu1D7v75 VHH-hIgG1 Fc-NNT (monomeric) (VHH)
VHH: B34 VHH with A23V, A62G, P63S, N74S, A75T, T98S
B45: hu1D7v76 VHH-hIgG1 Fc-NNT (monomeric) (VHH)
VHH: B34 VHH with A23V, A62V, P63S, N74S, A75T, T98S
B46: hu1D7v78 VHH-hIgG1 Fc-NNT (monomeric) (VHH)
VHH: B34 VHH with A23V, A62D, P63S, N74S, A75T, T98A
B47: hu1D7v79 VHH-hIgG1 Fc-NNT (monomeric) (VHH)
VHH: B34 VHH with A23V, A62D, P63S, N74S, A75T, T98L
B48: hu1D7v80 VHH-hIgG1 Fc-NNT (monomeric) (VHH)
VHH: B34 VHH with A23V, A62D, P63S, N74S, A75T, T98V
B49: hu1D7v81 VHH-hIgG1 Fc-NNT (monomeric) (VHH)
VHH: B34 VHH with A23V, A62D, P63S, N74S, A75T, N97A, T98S
B50: hu1D7v6 VHH-hIgG1 Fc-NNT (monomeric) (VHH)
VHH: B2 VHH with I29F, A50H
B51: hu1D7v83 VHH-hIgG1 Fc-NNT (monomeric) (VHH)
VHH: B34 VHH with A23V, A62D, P63G, N74S, A75T, T98S
B52: hu1D7v84 VHH-hIgG1 Fc-NNT (monomeric) (VHH)
VHH: B34 VHH with A23V, A62E, P63G, N74S, A75T, T98S
B53: hu1D7v87 VHH-hIgG1 Fc-NNT (monomeric) (VHH)
VHH: B34 VHH with A23V, A62Q, P63S, N74S, A75T, T98S
B54: hu1D7v88 VHH-hIgG1 Fc-NNT (monomeric) (VHH)
VHH: B34 VHH with A23V, A62Q, P63G, N74S, A75T, T98S
B55: hu1D7v89 VHH-hIgG1 Fc-NNT (monomeric) (VHH)
VHH: B34 VHH with A23V, A62D, P63S, N74S, A75T, N97Q, T98G
B56: hu1D7v90 VHH-hIgG1 Fc-NNT (monomeric) (VHH)
VHH: B34 VHH with A23V, A62D, P63S, N74S, A75T, N97S, T98G
B57: hu1D7v91 VHH-hIgG1 Fc-NNT (monomeric) (VHH)
VHH: B34 VHH with A23V, A62D, P63S, N74S, A75T, N97G, T98G
B58: hu1D7v8 VHH-hIgG1 Fc-NNT (monomeric) (VHH)
VHH: B2 VHH with R33A, A50H
B59: hu1D7v92 VHH-hIgG1 Fc-NNT (monomeric) (VHH)
VHH: B34 VHH with A23V, A62D, P63S, N74S, A75T, N97Q, T98N
B60: hu1D7v93 VHH-hIgG1 Fc-NNT (monomeric) (VHH)
VHH: B34 VHH with A23V, A62D, P63S, N74S, A75T, T98Q
B61: hu1D7v94 VHH-hIgG1 Fc-NNT (monomeric) (VHH)
VHH: B34 VHH with A23V, A62D, P63S, N74S, A75T, N97S, T98N
B62: hu1D7v96 VHH-hIgG1 Fc-NNT (monomeric) (VHH)
VHH: B34 VHH with A23V, A62Y, P63S, N74S, A75T, T98S

Biological target: human γδ TCR (Vγ9Vδ2) on human Vδ2+ γδ T cells (human) (UniProt A0JD36)
Test: flow cytometry on expanded human Vδ2+ γδ T cells, nonlinear fit

Row | Kd [nM] | Binder
1 | 6.09 | B1
2 | 42.2 | B2
3 | 18.2 | B3
4 | 21.5 | B4
5 | 16.4 | B5
6 | 24.6 | B6
7 | 20.1 | B7
8 | 42.5 | B8
9 | 26.7 | B9
10 | 29.1 | B10
11 | 18.1 | B11
12 | 5.23 | B12
13 | 9440 | B13
14 | 866000 | B14
15 | 29 | B15
16 | 15.7 | B16
17 | 7230 | B17
18 | 38.4 | B18
19 | 16.7 | B19
20 | 35.7 | B20
21 | 13 | B21

Row | Kd [nM] | Binder
22 | 11.7 | B22
23 | 8.4 | B23
24 | 1500 | B24
25 | 17.4 | B25
26 | 20200 | B26
27 | 7.99 | B27
28 | 10.5 | B28
29 | 8.07 | B29
30 | 23.8 | B30
31 | 9.67 | B31
32 | 8860 | B32
33 | 41.3 | B33
34 | 14.7 | B34
35 | 347 | B35
36 | 93.3 | B36
37 | 1740 | B37
38 | 1010 | B38
39 | 441 | B39
40 | 135 | B40
41 | 182 | B41
42 | 180 | B42

Row | Kd [nM] | Binder
43 | 60.4 | B43
44 | 118 | B44
45 | 125 | B45
46 | 481 | B46
47 | 497 | B47
48 | 646 | B48
49 | 843 | B49
50 | 35.1 | B50
51 | 36.3 | B51
52 | 43.6 | B52
53 | 44.9 | B53
54 | 61.5 | B54
55 | 1950 | B55
56 | 95.6 | B56
57 | 154 | B57
58 | 7870 | B58
59 | 104 | B59
60 | 1090 | B60
61 | 752 | B61
62 | 191 | B62
